Source: patent publication US20070167369A1, “Novel use of isolated polypeptide comprising four FAS-1 domains, EM1 domain and RGD motif” (KYUNGPOOK NATIONAL UNIVERSITY INDUSTRY-ACADEMIC COOPERATION …, priority 2004, published 2007)

B1: truncated βig-h3: recombinant human βig-h3 with EMI domain, all four fas-1 domains and RGD motif; residues 68-653 of SEQ ID NO: 1 (SEQ ID NO: 66) (protein, listed as Homo sapiens)
chain: WYQRKICGKSTVISYECCPGYEKVPGEKGCPAALPLSNLYETLGVVGSTTTQLYTDRTEKLRPEMEGPGSFTIFAPSNEAWASLPAEVLDSLVSNVNIELLNALRYHMVGRRVLTDELKHGMTLTSMYQNSNIQIHHYPNGIVTVNCARLLKADHHATNGVVHLIDKVISTITNNIQQIIEIEDTFETLRAAVAASGLNTMLEGNGQYTLLAPTNEAFEKIPSETLNRILGDPEALRDLLNNHILKSAMCAEAIVAGLSVETLEGTTLEVGCSGDMLTINGKAIISNKDILATNGVIHYIDELLIPDSAKTLFELAAESDVSTAIDLFRQAGLGNHLSGSERLTLLAPLNSVFKDGTPPIDAHTRNLLRNHIIKDQLASKYLYHGQTLETLGGKKLRVFVYRNSLCIENSCIAAHDKRGRYGTLFTMDRVLTPPMGTVMDVLKGDNRFSMLVAAIQSAGLTETLNREGVYTVFAPTNEAFRALPPRERSRLLGDAKELANILKYHIGDEILVSGGIGALVRLKSLQGDKLEVSLKNNVVSVNKEPVAEPDIMATNGVVHVITNVLQPPANRPQERGDELADSALEI
B2: fas-1 domain: recombinant protein containing the fourth fas-1 domain of human βig-h3 (SEQ ID NO: 64) (protein, listed as Homo sapiens)
chain: MGTVMDVLKGDNRFSMLVAAIQSAGLTETLNREGVYTVFAPTNEAFRALPPRERSRLLGDAKELANILKYHIGDEILVSGGIGALVRLKSLQGDKLEVSLKNNVVSVNKEPVAEPDIMATNGVVHVITNVL

Columns and labels:
HUVECs [1] = test: Endothelial cell adhesion to plates coated with βig-h3 or its fas-1 domains (Example 2); format: cell-based, human; details: plate coated with 10 μg/ml protein; absorbance 405 nm
Procedure: Cell adhesion assay was performed according to the method described by Kim, J.-E. et al., J. Biol. Chem., 277:46159-46165, 2002. For this purpose, 10 μg/ml of each of the recombinant proteins (βig-h3 His-1-b, βig-h3 D-I, βig-h3 D-II, βig-h3 D-III and βig-h3 D-IV) prepared in Example 1 was placed into a flat-bottomed 96-well ELISA (enzyme-linked immunosorbent assay) plate (Costar, Corning Inc., NY) and then incubated overnight at 4° C., to coat the surface of the plate. As a control, 2% BSA was coated on the plate. Then, the plate was treated with PBS (phosphate-buffered saline) containing 2% BSA, and blocked at room temperature for one hour.
Meanwhile, HUVECs (human umbilical vein endothelial cells; Clonetics, San Diego, Calif.) were incubated in EGM medium (Clonetics, San Diego, Calif.) containing 2% FBS (Fetal Bovine Serum) under a condition of 37° C. and 5% CO2. The incubated cells were suspended in medium at a density of 3×10^5 cells/ml, and 0.1 ml of the cell suspension was added to each well of the plate. Next, the cells were incubated at 37° C. for 30 minutes and washed one time with PBS buffer to remove cells which had not been attached to the plate. […] The absorbance was measured at a 405-nm in a Bio-Rad model 550 microplate reader. Here, the higher the number of cells adhered to the plate, the higher the absorbance.

melanoma cells (B16F10) [2] = test: Apoptosis by annexin V staining/FACS, melanoma cells (Example 7-1); format: cell-based, murine; details: 48 hours
Procedure: Annexin V is a protein binding to calcium-dependent phospholipid, and known to have a strong affinity for phosphatidylserine such that apoptosis can be assayed. For this reason, the present inventors performed a test using an annexin V staining kit (Santa Cruz Biotechnology Inc.).
Each of human umbilical vein endothelial cells (HUVECs) and melanoma cells (B16F10) was suspended in medium at a density of 5×10^5 cells/ml, added to each well of […] and incubated at 37° C. overnight. On the next day, the cells were washed one time with PBS buffer, then added with serum-free medium and incubated at 37° C. for 24 hours. 0.2% FBS-containing fresh medium was treated with the fas-1 domain (βig-h3 D-IV) prepared in Example 1, at various concentrations, then added to each well of the plate and incubated at 37° C. for 48 hours. A negative control was added with PBS, a positive control was incubated with TNF-α or Vitamin C, which are known to induce the apoptosis of endothelial cells and melanoma cells. FITC (fluorescein isothiocyanate)-conjugated annexin V antibodies were added and allowed to react at 4° C. for one hour. After completion of the reaction, unbound annexin V antibodies were removed with PBS buffer, and the apoptosis of the cells was analyzed using FACS (BD Biosciences).

HUVECs [3] = test: Endothelial cell proliferation, MTT (Example 6); format: cell-based, human; details: 48 hours
Procedure: HUVECs were suspended in medium at a density of 3×10^4 cells/ml, and 0.1 ml of the cell suspension was added to each well of 96-well plate and incubated at 37° C. overnight. The cells were washed with PBS buffer, and then incubated at 37° C. for 24 hours in serum-free medium. Thereafter, 0.2% FBS-containing medium containing the indicated concentrations of the fas-1 domain (βig-h3 D-IV) prepared in Example 1 was added to each well of the plate and incubated at 37° C. for 48 hours. A control was added with 2% BSA instead of the fas-1 domain. 50 μl of 0.5 mg/ml thiazolyl blue (MTT; Sigma) solution was added to each well, and allowed to react at 37° C. for 4 hours. After the reaction, the medium was removed, and each well was added with DMSO and left to stand at room temperature for a few minutes. Thereafter, the absorbance was measured at 570 nm in a Bio-Rad model 550 microplate reader.

melanoma cells (B16F10) [4] = test: Proliferation of fas-1-overexpressing melanoma cells, MTT (Example 10-1); format: cell-based, murine; details: fas-1 domain overexpressed (fas-1/B16F10) vs pLNCX/B16F10, 48-72 hours
Procedure: cDNA (SEQ ID NO: 65) encoding the fourth fas-1 domain of βig-h3 was cloned into the EcoRI/XhoI sites of a pLNCX retrovirus vector (Clontech Lab. Inc., USA). The resulting recombinant retrovirus vector was named “fas-1/pLNCX”. Packaging cell PT67 (Clontech Lab. Inc., USA) were transfected with the fas-1/pLNCX vector using lipofectamine. The transformed cells were incubated at 37° C. for 48 hours. After completion of the incubation, virus particles present in the culture medium were collected, and filtered one time through a 0.45-μm filter. The filtered virus particles were added to a culture medium of melanoma cells (B16F10), and then allowed to react at 37° C. for 6 hours. The culture medium was replaced with fresh medium, and the transfected cells were screened several times in the presence of 1 mg/ml of G418. Western blot analysis using a βig-h3 antibody was performed to confirm that the fas-1 domain is overexpressed in the screened transfected cells. As a result, fas-1-overexpressing melanoma cells (hereinafter, referred to as “fas-1/B16F10”) were prepared. […]
Each of the fas-1-overexpressing melanoma cells (fas-1/B16F10) and the control cells (pLNCX/B16F10) was suspended in medium at a density of 3×10^4 cells/ml, and 0.1 ml of the cell suspension was added to each well of a 96-well plate. […] Thereafter, the absorbance was measured at 570 nm in a Bio-Rad model 550 microplate reader.

Molecule	adhesion of endothelial cells to coated protein (HUVECs [1])	induction of apoptosis of B16F10 cells (melanoma cells (B16F10) [2])	inhibition of proliferation of endothelial cells (HUVECs [3])	effect on proliferation of melanoma cells (melanoma cells (B16F10) [4])
B1	mediated the adhesion of endothelial cells	–	–	–
B2	–	did not induce the apoptosis of B16F10 cells	inhibited by fas-1 domain in a dose-dependent manner	no effect on the proliferation of melanoma cells
